Columns and labels:
[1] = target: T1, recombinant human CTLA-4-Fc protein (R&D Systems) (human, UniProt P16410 37-162); test: competitive flow cytometry: soluble rhCTLA-4-Fc blocks staining of activated human CD4+ T cells
T1 construct: also called rhCTLA-4-Fc; human CTLA-4 protein; not shown: Fc part of the bought fusion protein, not described

[2] = target: T2, human CTLA-4 expressed on cells (293T cells stably transfected with human CTLA-4); in vitro-activated human … (human, UniProt P16410 36-223); test: flow cytometry on hCTLA-4-transfected 293T cells
T2 construct: whole, on cells; also called hCTLA-4

[3] = target: T3, recombinant mouse CD28-Fc protein (R&D Systems) (mouse, UniProt P31041 20-149); test: ELISA, mouse CD28-Fc coated at 0.3 pmol/well
T3 construct: not shown: Fc part of the bought fusion protein, not described

[4] = target: T4, recombinant human CD28-Fc protein (R&D Systems) (human, UniProt P10747 19-152); test: ELISA, CD28-Fc coated at 1 pmol/well
T4 construct: also called human CD28 protein; not shown: Fc part of the bought fusion protein, not described

[5] = target: T5, recombinant mouse CTLA-4-Fc protein (R&D Systems) (mouse, UniProt P09793 36-162); test: ELISA, mouse CTLA-4-Fc coated at 0.3 pmol/well, IgG titrated
T5 construct: not shown: Fc part of the bought fusion protein, not described

[6] = target: T6, recombinant mouse CTLA-4-Fc protein (Sino Biological Inc.) (mouse, UniProt P09793 36-162); test: ligand blocking ELISA on coated mouse CTLA-4-Fc
T6 construct: also called murine CTLA-4; not shown: Fc part of the bought fusion protein, not described

[7] = target: T1, recombinant human CTLA-4-Fc protein …; test: ELISA, CTLA-4-Fc coated at 1 pmol/well, IgG titrated
[8] = target: T1, recombinant human CTLA-4-Fc protein …; test: ELISA, CTLA-4-Fc coated, IgG titrated

Row | Binder | binding result [1] | binding result [2] | binding result [3] | binding result [4] | binding result [5] | binding result [6] | binding result [7] | binding result [8]
1 | 5-B07 (antibody, V domains shown, also called 5-B07 (human IgG format)) VH: EVQLLESGGGLVQPGGSLRLSCAASGFTFSSYSMNWVRQAPGKGLEWVSAISGSGGSTYYADSVKGRFTISRDNSKNTLYLQMNSLRAEDTAVYYCARDRVEMNQWLADWGQGTLVTVSS VL: not shown | binds | binds | no binding (tested: titrated 66 nM to 0.3 pM) | no binding (tested: titrated 66 nM to 0.3 pM) | binds | – | – | –
2 | m5-B07 (antibody clone 5-B07 in mIgG2a format) (antibody, V domains shown, also called 5-B07 in mouse IgG2a format; m5-B07 mAb) VH: EVQLLESGGGLVQPGGSLRLSCAASGFTFSSYSMNWVRQAPGKGLEWVSAISGSGGSTYYADSVKGRFTISRDNSKNTLYLQMNSLRAEDTAVYYCARDRVEMNQWLADWGQGTLVTVSS VL: not shown | – | – | – | – | – | binds | – | –
3 | 2-F09 (antibody, V domains shown) VH: EVQLLESGGGLVQPGGSLRLSCAASGFTFKAYSMSWIRQAPGKGLEWVSGISNTGGSTDFADSVKGRFTISRDNSKNTLYLQMNSLRAEDTAMYYCARLGYSGYDDRGMDVWGQGTLVTVSS VL: QSVLTQPPSASGTPGQRVTISCSGSSSNIGSNYVYWYQQLPGTAPKLLIYGNSNRPSGVPDRFSGSKSGTSASLAISGLRSEDEADYYCQSYDSSLSGPVVFGGGTKLTVLG | – | binds | – | – | – | – | binds | –
4 | 2-C06 (antibody, V domains shown, also called 2-006) VH: EVQLLESGGGLVQPGGSLRLSCAASGFTFSSYAMSWVRQAPGKGLEWVSGISGSGGYIHYADSVKGRFTISRDNSKNTLYLQMNSLRAEDTAVYYCATYSSGLHDAFDIWGQGTLVTVSS VL: QSVLTQPPSASGTPGQRVTISCTGSSSNIGAGYDVHWYQQLPGTAPKLLIYDNNKRPSGVPDRFSGSKSGTSASLAISGLRSEDEADYYCAAWDDSLNGWVFGGGTKLTVLG | – | binds | – | no binding (tested: titrated 66 nM to 0.3 pM) | – | – | – | binds
5 | 4-E03 (antibody, human IgG1, lambda, V domains shown, also called 4-E03 mAb; 4-E03 monoclonal antibody) VH: EVQLLESGGGLVQPGGSLRLSCAASGFTFSDYYMSWVRQAPGKGLEWVSGISWSSRDKGYADSVKGRFTISRDNSKNTLYLQMNSLRAEDTAVYYCTTDLARYWGQGTLVTVSS VL: QSVLTQPPSASGTPGQRVTISCTGSSSNIGAGYDVHWYQQLPGTAPKLLIYGNDNRPSGVPDRFSGSKSGTSASLAISGLRSEDEADYYCAVWDDSLNGVVFGGGTKLTVLG | – | binds | – | no binding (tested: titrated 66 nM to 0.3 pM) | – | – | – | binds
